# Measured values as given in paper PMC12881460, “Biophysical characterization of Eag chaperones suggests the mechanism of effector transmembrane domain release” (Nature Communications, 2026).
# B1: EagT6 I24F (natural protein)
# chain: MTLYRLHEADLEIPDAWQDQSINFFKLPASGPAREASFVISRDASQGDAPFADYVARQLENAEKQLPGFKLHKRWDINIHGHAAVLLDYQWQREGRDLMLRQVFIERRPAVLITTLTTTPADLPHHEPAWKQAMQTLVPRPTPS
# B2: EagT6 Q58A (natural protein)
# chain: MTLYRLHEADLEIPDAWQDQSINIFKLPASGPAREASFVISRDASQGDAPFADYVARALENAEKQLPGFKLHKRWDINIHGHAAVLLDYQWQREGRDLMLRQVFIERRPAVLITTLTTTPADLPHHEPAWKQAMQTLVPRPTPS
# notes: also called EagT6-TMD Q58A (in complex)
# B3: EagT6 Q102A (natural protein)
# chain: MTLYRLHEADLEIPDAWQDQSINIFKLPASGPAREASFVISRDASQGDAPFADYVARQLENAEKQLPGFKLHKRWDINIHGHAAVLLDYQWQREGRDLMLRAVFIERRPAVLITTLTTTPADLPHHEPAWKQAMQTLVPRPTPS
# B4: EagT6 S41A (natural protein)
# chain: MTLYRLHEADLEIPDAWQDQSINIFKLPASGPAREASFVIARDASQGDAPFADYVARQLENAEKQLPGFKLHKRWDINIHGHAAVLLDYQWQREGRDLMLRQVFIERRPAVLITTLTTTPADLPHHEPAWKQAMQTLVPRPTPS
# B5: Tse6(1–61) (domain or fragment)
# chain: MDAQAAARLGDEIAHGFGVAAMVAGAVAGALIGAAVVAATAATGGLAAVILAGSIAAGGLS
# notes: not shown: His6, C-terminal, kept
# B6: EagT6 L66A (natural protein)
# chain: MTLYRLHEADLEIPDAWQDQSINIFKLPASGPAREASFVISRDASQGDAPFADYVARQLENAEKQAPGFKLHKRWDINIHGHAAVLLDYQWQREGRDLMLRQVFIERRPAVLITTLTTTPADLPHHEPAWKQAMQTLVPRPTPS
# notes: also called EagT6-TMD L66A (in complex)
# How the values were obtained:
# [1] = biological target: Tse6(1–61) (Pseudomonas aeruginosa) (UniProt Q9I739); test: GdmCl denaturation followed by steady-state tryptophan fluorescence (unfolding free energy of the co-purified complex against the apo chaperone); 1 μM protein dimer, 25 mM Tris pH 7.0, GdmCl series, room temperature, 1 h equilibration; KTMD calculated by Eq. (7) from ΔG° of unfolding extrapolated to 0 M denaturant
# [2] = biological target: SciW (Salmonella Typhimurium); test: dynamic light scattering; 50 mM Tris pH 8.0, 250 mM NaCl, 1 mM BME, 25 °C, 0.5 mg/ml protein
# [3] = biological target: Rhs1(1–59) (Salmonella Typhimurium); test: stopped-flow fluorescence unfolding kinetics; co-purified complex or apo chaperone, 10 μM diluted 1/10 into GdmCl in 50 mM Tris, 250 mM NaCl, 1 mM BME, 20 °C; rate extrapolated to 0 M GdmCl
# [4] = biological target: SciW I25F (Salmonella Typhimurium); test: dynamic light scattering; 50 mM Tris pH 8.0, 250 mM NaCl, 1 mM BME, 25 °C, 0.5 mg/ml protein
# [5] = biological target: SciW Q58A (Salmonella Typhimurium); test: as above
# [6] = biological target: SciW Q106A (Salmonella Typhimurium); test: as above
# [7] = biological target: SciW S41A (Salmonella Typhimurium); test: as above
# [8] = biological target: the molecule itself; test: as above
# EagT6 Q58A = biological target: B2; test: GdmCl denaturation followed by steady-state tryptophan fluorescence (unfolding free energy of the co-purified complex against the apo chaperone); 1 μM protein dimer, 25 mM Tris pH 7.0, GdmCl series, room temperature, 1 h equilibration; KTMD calculated by Eq. (7) from ΔG° of unfolding extrapolated to 0 M denaturant; settings: both partners purified
molecule,measurement,setting,value
EagT6 L66A (from UniProt Q9I738) (natural protein),Ka,[1],< 1e+06 M⁻¹
SciW (natural protein),stoichiometry N,[2],2
same,lifetime of the complex,[3],15 h
SciW I25F (natural protein),stoichiometry N,[4],2
SciW L66A (natural protein),lifetime of the complex,[3],2 h
SciW Q58A (natural protein),stoichiometry N,[5],2
same,lifetime of the complex,[3],0.267 h
SciW Q106A (natural protein),stoichiometry N,[6],2
SciW S41A (natural protein),stoichiometry N,[7],2
B1,stoichiometry N,[8],2
B2,stoichiometry N,[8],2
B3,stoichiometry N,[8],2
B4,stoichiometry N,[8],2
B5,Kd,EagT6 Q58A,~0.03 nM
B6,stoichiometry N,[8],2
